Patent US20200164059A1
Like-named read-outs stand apart in the source and are kept apart here.

Legend:
[1] = target: gp350 on EBV virions (Epstein Barr virus) (UniProt P03200); assay: cell-based or functional assay
[2] = target: EBV gH/gL heterodimer, recombinant ectodomain (Epstein Barr virus); assay: BLI kinetics, pH 7.4, ligand gH/gL, analyte gp42; kon (1/Ms) x10^5
[3] = target: EBV gH/gL heterodimer, recombinant ectodomain (Epstein Barr virus); assay: BLI kinetics, pH 7.4, ligand gH/gL, analyte gp42; KA M^-1 x10^7
[4] = target: EBV gH/gL heterodimer, recombinant ectodomain (Epstein Barr virus); assay: BLI kinetics, pH 7.4, ligand gH/gL, analyte gp42; koff (1/s) x10^-3
[5] = target: EBV gH/gL heterodimer, recombinant ectodomain (Epstein Barr virus); assay: BLI kinetics, pH 7.4, ligand gH/gL, analyte gp42; KD M x10^-9
[6] = target: EBV gH/gL heterodimer, recombinant ectodomain (Epstein Barr virus); assay: BLI kinetics, pH 7.4, ligand CL40 Mab, analyte gH/gL; KD M x10^-9
[7] = target: EBV gH/gL heterodimer, recombinant ectodomain (Epstein Barr virus); assay: BLI kinetics, pH 7.4, ligand CL40 Mab, analyte gH/gL; kon (1/Ms) x10^5
[8] = target: EBV gH/gL heterodimer, recombinant ectodomain (Epstein Barr virus); assay: BLI kinetics, pH 5.0, ligand CL40 Mab, analyte gH/gL; KA M^-1 x10^7
[9] = target: EBV gH/gL heterodimer, recombinant ectodomain (Epstein Barr virus); assay: BLI kinetics, pH 7.4, ligand CL40 Mab, analyte gH/gL; koff (1/s) x10^-3
[10] = target: EBV gH/gL heterodimer, recombinant ectodomain (Epstein Barr virus); assay: BLI kinetics, pH 5.0, ligand CL40 Mab, analyte gH/gL; koff (1/s) x10^-3
[11] = target: gH/gL on EBV virions (Epstein Barr virus) (UniProt P03231); assay: cell-based or functional assay
[12] = target: EBV gH/gL heterodimer, recombinant ectodomain (Epstein Barr virus); assay: BLI kinetics, pH 5.0, ligand CL40 Mab, analyte gH/gL; kon (1/Ms) x10^5
[13] = target: EBV gH/gL heterodimer, recombinant ectodomain (Epstein Barr virus); assay: BLI kinetics, pH 5.0, ligand CL40 Mab, analyte gH/gL; KD M x10^-9
[14] = target: EBV gH/gL heterodimer, recombinant ectodomain (Epstein Barr virus); assay: BLI kinetics, pH 7.4, ligand CL40 Mab, analyte gH/gL; KA M^-1 x10^7
[15] = target: EBV gH/gL heterodimer, recombinant ectodomain (Epstein Barr virus); assay: BLI kinetics, pH 7.4, ligand gH/gL, analyte gp42 T175A; KD M x10^-9
[16] = target: EBV gH/gL heterodimer, recombinant ectodomain (Epstein Barr virus)
[17] = target: EBV gH/gL heterodimer, recombinant ectodomain (Epstein Barr virus); assay: BLI kinetics, pH 5.0, ligand CL59 Mab, analyte gH/gL; KD M x10^-9
[18] = target: EBV gH/gL heterodimer, recombinant ectodomain (Epstein Barr virus); assay: BLI kinetics, pH 7.4, ligand CL59 Mab, analyte gH/gL; kon (1/Ms) x10^5
[19] = target: EBV gH/gL heterodimer, recombinant ectodomain (Epstein Barr virus); assay: BLI kinetics, pH 5.0, ligand CL59 Mab, analyte gH/gL; kon (1/Ms) x10^5
[20] = target: EBV gH/gL heterodimer, recombinant ectodomain (Epstein Barr virus); assay: BLI kinetics, pH 7.4, ligand CL59 Mab, analyte gH/gL; KD M x10^-9
[21] = target: EBV gH/gL heterodimer, recombinant ectodomain (Epstein Barr virus); assay: BLI kinetics, pH 7.4, ligand CL59 Mab, analyte gH/gL; KA M^-1 x10^7
[22] = target: EBV gH/gL heterodimer, recombinant ectodomain (Epstein Barr virus); assay: BLI kinetics, pH 5.0, ligand CL59 Mab, analyte gH/gL; KA M^-1 x10^7
[23] = target: EBV gH/gL heterodimer, recombinant ectodomain (Epstein Barr virus); assay: BLI kinetics, pH 5.0, ligand CL59 Mab, analyte gH/gL; koff (1/s) x10^-3
[24] = target: EBV gH/gL heterodimer, recombinant ectodomain (Epstein Barr virus); assay: BLI kinetics, pH 7.4, ligand CL59 Mab, analyte gH/gL; koff (1/s) x10^-3

72A1 (antibody)
neutralization of B95.8/F EBV infection of B (Raji) cells, IC50 [1]: 0.08 µg/mL

EBV gp42, recombinant ectodomain
kon [2]: 224000 M⁻¹ s⁻¹ | Ka [3]: 7.84e+08 M⁻¹ | koff [4]: 0.000286 s⁻¹ | Kd [5]: 1.28 nM

CL40 (antibody)
Kd [6]: 6.77 nM | kon [7]: 469000 M⁻¹ s⁻¹ | Ka [8]: 1.67e+08 M⁻¹ | koff [9]: 0.00318 s⁻¹ | koff [10]: 0.00356 s⁻¹ | concentration reducing B cell (Raji) infection to 50% [11]: 14.6 µg/mL | fold decrease in fold potency against AMMO1, B cell (Raji) infection [11]: 100 fold | kon [12]: 594000 M⁻¹ s⁻¹ | Kd [13]: 5.99 nM | Ka [14]: 1.48e+08 M⁻¹

gp42 T175A, recombinant ectodomain
Kd [15]: 2.06 nM | Ka [16]: 4.85e+08 M⁻¹ | koff [16]: 0.000299 s⁻¹ | kon [16]: 145000 M⁻¹ s⁻¹

CL59 (antibody)
Kd [17]: 5.52 nM | kon [18]: 438000 M⁻¹ s⁻¹ | kon [19]: 337000 M⁻¹ s⁻¹ | Kd [20]: 6.39 nM | Ka [21]: 1.57e+08 M⁻¹ | Ka [22]: 1.81e+08 M⁻¹ | koff [23]: 0.00186 s⁻¹ | koff [24]: 0.0028 s⁻¹
